The target in test [1] is recombinant EgAgB8/2 subunit of Echinococcus granulosus antigen B (Echinococcus granulosus). Briefly: SEC; 100 uL of lipid-free EgAgB8/2 (324 uM) or EgAgB8/3 (320 uM) loaded separately on Superdex 200 HR 10/30 in PBS, 0.5 mL/min; apparent molecular weight against BSA, carbonic anhydrase and cytochrome c.
Test [2] addresses T1, EgAgB8/3 (antigen B subunit 3).
T1 construct: gene EgAgB3; recombinant lipid-free (RP-HPLC delipidated) EgAgB8/3 mature subunit, GST fusion cleaved with thrombin; GenBank AAK64236
Nature of the test: fluorimetric titration of 12-AS (direct probe binding, TBS). Further details: species or system Echinococcus granulosus.

For test [3], the target named is T2, EgAgB8/2 (antigen B subunit 2) (Echinococcus granulosus, UniProt Q27275).
T2 construct: gene AgB2; recombinant lipid-free (RP-HPLC delipidated) EgAgB8/2 mature subunit, GST fusion cleaved with thrombin; GenBank AAC47169
Briefly: fluorimetric titration of 12-AS (direct probe binding, […]°C, TBS).

In test [4] the target is recombinant EgAgB8/3 subunit of Echinococcus granulosus antigen B (Echinococcus granulosus). Nature of the test: SEC; 100 uL of lipid-free EgAgB8/2 (324 uM) or EgAgB8/3 (320 uM) loaded separately on Superdex 200 HR 10/30 in PBS, 0.5 mL/min; apparent molecular weight against BSA, carbonic anhydrase and cytochrome c.

In the case of “recombinant EgAgB8/2 subunit of Echinococcus granulosus antigen B (natural protein)”, the stoichiometry N in test [1] was 7 to 8 subunits.

Regarding `CCCCCCC(CCCCCCCCCCC(=O)O)OC(=O)c1c2ccccc2cc2ccccc12` (stereo not shown) [12-AS, 12-(9-anthroyloxy) stearic acid], the Kd in test [2] worked out at 340 ± 20 nM; in test [3], 160 ± 90 nM.

“recombinant EgAgB8/3 subunit of Echinococcus granulosus antigen B (natural protein)”: the stoichiometry N in test [4] lay within 4 to 5 subunits.

The values above are taken from PMC4358968, “Lipid-Free Antigen B Subunits from Echinococcus granulosus: Oligomerization, Ligand Binding, and Membrane Interaction Properties” (PLoS Neglected Tropical Diseases, 2015).
